In the supplement of paper PMC9112550, “Optimization of the antimicrobial peptide Bac7 by deep mutational scanning” (BMC Biology, 2022):

Tested on: Escherichia coli TOP10
Assay: shrunken log2 fold change of peptide-encoding DNA abundance (4.5 h post-induction vs induction); higher = less antimicrobial activity (less host growth inhibition)
Details: time post-induction: 4.5 h; library: site-saturation at positions 5, 18, 19, 20
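Also: peptides expressed intracellularly from a pBAD plasmid library in pooled LB shake-flask culture, induced with 0.3% L-arabinose, DNA abundance read by NGS, three biological replicates, DESeq2 with apeglm shrinkage.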

| Sequence | shrunken log2 fold change |
| --- | --- |
| RRIRDRPPRLPRPRPRPCPNPRP | -0.02 |
| RRIRSRPPRLPRPRPRPKNWPRP | 0.176 |
| RRIRPRPPRLPRPRPRPSKCPRP | -0.0749 |
| RRIRFRPPRLPRPRPRPQAEPRP | -0.263 |
| RRIRVRPPRLPRPRPRPQEAPRP | -0.0448 |
| RRIRTRPPRLPRPRPRPNNHPRP | -0.345 |
| RRIRRRPPRLPRPRPRPQAIPRP | -0.0149 |
| RRIRKRPPRLPRPRPRPLTCPRP | -0.000599 |
| RRIRDRPPRLPRPRPRPFLWPRP | 0.625 |
| RRIRMRPPRLPRPRPRPDWDPRP | 0.211 |
| RRIRNRPPRLPRPRPRPECSPRP | 0.079 |
| RRIRVRPPRLPRPRPRPQQSPRP | -0.0738 |
| RRIRCRPPRLPRPRPRPLDDPRP | -0.119 |
| RRIRPRPPRLPRPRPRPWYAPRP | -0.107 |
| RRIRYRPPRLPRPRPRPTCKPRP | -0.178 |
| RRIRVRPPRLPRPRPRPPADPRP | 0.565 |
| RRIRDRPPRLPRPRPRPLYCPRP | -0.333 |
| RRIRTRPPRLPRPRPRPMHQPRP | -0.0917 |
| RRIRIRPPRLPRPRPRPTIPPRP | -0.463 |
| RRIRYRPPRLPRPRPRPRHPPRP | -0.266 |
| RRIRPRPPRLPRPRPRPTSFPRP | 0.0509 |
| RRIRSRPPRLPRPRPRPQHGPRP | -0.397 |
| RRIRGRPPRLPRPRPRPYHRPRP | -0.203 |
| RRIRNRPPRLPRPRPRPIPIPRP | -0.0823 |
| RRIRGRPPRLPRPRPRPQYQPRP | -0.191 |

| Sequence | shrunken log2 fold change |
| --- | --- |
| RRIRIRPPRLPRPRPRPTPNPRP | -0.0265 |
| RRIRGRPPRLPRPRPRPMDIPRP | 0.0445 |
| RRIRMRPPRLPRPRPRPEAFPRP | 2.91 |
| RRIRHRPPRLPRPRPRPYHYPRP | -0.125 |
| RRIRLRPPRLPRPRPRPIMPPRP | -0.459 |
| RRIRLRPPRLPRPRPRPPTWPRP | 0.169 |
| RRIRERPPRLPRPRPRPIFRPRP | -0.00741 |
| RRIRWRPPRLPRPRPRPPVDPRP | 0.494 |
| RRIRMRPPRLPRPRPRPFVFPRP | 0.0629 |
| RRIRFRPPRLPRPRPRPMYTPRP | -0.00812 |
| RRIRERPPRLPRPRPRPFCLPRP | -0.558 |
| RRIRGRPPRLPRPRPRPFAVPRP | 0.396 |
| RRIRCRPPRLPRPRPRPCAFPRP | -0.311 |
| RRIRHRPPRLPRPRPRPQHNPRP | 0.22 |
| RRIRCRPPRLPRPRPRPKTFPRP | -0.138 |
| RRIRYRPPRLPRPRPRPIAMPRP | -0.322 |
| RRIRYRPPRLPRPRPRPNGAPRP | -0.0032 |
| RRIRHRPPRLPRPRPRPVRRPRP | 0.241 |
| RRIRVRPPRLPRPRPRPMNLPRP | -0.0749 |
| RRIRERPPRLPRPRPRPYLGPRP | -0.12 |
| RRIRERPPRLPRPRPRPPHHPRP | -0.123 |
| RRIRNRPPRLPRPRPRPDYAPRP | -0.0367 |
| RRIRTRPPRLPRPRPRPPNPPRP | 0.442 |
| RRIRPRPPRLPRPRPRPTQGPRP | 0.753 |
| RRIRARPPRLPRPRPRPCITPRP | 0.178 |

| Sequence | shrunken log2 fold change |
| --- | --- |
| RRIRHRPPRLPRPRPRPILLPRP | -0.211 |
| RRIRDRPPRLPRPRPRPLYMPRP | 0.383 |
| RRIRERPPRLPRPRPRPMPRPRP | 0.0247 |
| RRIRRRPPRLPRPRPRPNNPPRP | 0.0225 |
| RRIRARPPRLPRPRPRPWTKPRP | 0.167 |
| RRIRIRPPRLPRPRPRPGGIPRP | -0.279 |
| RRIRSRPPRLPRPRPRPEEKPRP | 0.206 |
| RRIRSRPPRLPRPRPRPQHIPRP | -1.21 |
| RRIRMRPPRLPRPRPRPCWTPRP | -0.218 |
| RRIRWRPPRLPRPRPRPGCHPRP | 0.253 |
| RRIRPRPPRLPRPRPRPSDFPRP | -0.42 |
| RRIRNRPPRLPRPRPRPKPYPRP | -0.342 |
| RRIRERPPRLPRPRPRPCNTPRP | -0.118 |
| RRIRNRPPRLPRPRPRPLAIPRP | 0.0449 |
| RRIRIRPPRLPRPRPRPRRSPRP | 0.347 |
| RRIRPRPPRLPRPRPRPCALPRP | -0.0401 |
| RRIRMRPPRLPRPRPRPDMEPRP | 0.00931 |
| RRIRCRPPRLPRPRPRPFPRPRP | 0.134 |
| RRIRKRPPRLPRPRPRPPQGPRP | 0.469 |
| RRIRCRPPRLPRPRPRPDKEPRP | -0.00172 |
| RRIRIRPPRLPRPRPRPQCDPRP | -0.205 |
| RRIRRRPPRLPRPRPRPNAPPRP | 0.675 |
| RRIRHRPPRLPRPRPRPILGPRP | -0.0179 |
| RRIRQRPPRLPRPRPRPRCNPRP | -0.515 |
| RRIRWRPPRLPRPRPRPESHPRP | 0.189 |

| Sequence | shrunken log2 fold change |
| --- | --- |
| RRIRDRPPRLPRPRPRPILLPRP | -0.28 |
| RRIRTRPPRLPRPRPRPVEWPRP | 0.168 |
| RRIRVRPPRLPRPRPRPHYVPRP | 0.0323 |
| RRIRLRPPRLPRPRPRPECKPRP | 0.0726 |
| RRIRWRPPRLPRPRPRPIHPPRP | -0.117 |
| RRIRSRPPRLPRPRPRPKWPPRP | 0.146 |
| RRIRGRPPRLPRPRPRPFIEPRP | 0.364 |
| RRIRDRPPRLPRPRPRPVQRPRP | 0.121 |
| RRIRRRPPRLPRPRPRPHDVPRP | 0.0619 |
| RRIRVRPPRLPRPRPRPNWDPRP | -0.0621 |
| RRIRRRPPRLPRPRPRPWCDPRP | 0.0743 |
| RRIRWRPPRLPRPRPRPHWHPRP | -0.0347 |
| RRIRWRPPRLPRPRPRPCDVPRP | -0.00226 |
| RRIRCRPPRLPRPRPRPMKHPRP | -0.486 |
| RRIRNRPPRLPRPRPRPYGDPRP | -1.01 |
| RRIRHRPPRLPRPRPRPPGQPRP | 0.0303 |
| RRIRYRPPRLPRPRPRPAITPRP | -0.933 |
| RRIRQRPPRLPRPRPRPAIWPRP | -0.143 |
| RRIRDRPPRLPRPRPRPGRLPRP | 0.0513 |
| RRIRKRPPRLPRPRPRPHMNPRP | -0.295 |
| RRIRNRPPRLPRPRPRPVYVPRP | -0.284 |
| RRIRPRPPRLPRPRPRPCNIPRP | -0.554 |
| RRIRMRPPRLPRPRPRPGEQPRP | 1.48 |
| RRIRRRPPRLPRPRPRPIQRPRP | 0.168 |
| RRIRLRPPRLPRPRPRPMYAPRP | -0.248 |

| Sequence | shrunken log2 fold change |
| --- | --- |
| RRIRMRPPRLPRPRPRPHLFPRP | -0.0118 |
| RRIRQRPPRLPRPRPRPLHWPRP | 0.0127 |
| RRIRKRPPRLPRPRPRPSHPPRP | 0.146 |
| RRIRHRPPRLPRPRPRPVKNPRP | 0.0467 |
| RRIRPRPPRLPRPRPRPKYMPRP | 1.72 |
| RRIRCRPPRLPRPRPRPKERPRP | 0.238 |
| RRIRFRPPRLPRPRPRPAMAPRP | 0.0902 |
| RRIRGRPPRLPRPRPRPMSNPRP | 0.473 |
| RRIRGRPPRLPRPRPRPTWAPRP | 0.987 |
| RRIRYRPPRLPRPRPRPQWYPRP | -0.118 |
| RRIRTRPPRLPRPRPRPRATPRP | 0.299 |
| RRIRTRPPRLPRPRPRPPRSPRP | 0.529 |
| RRIRERPPRLPRPRPRPDFGPRP | -0.0271 |
| RRIRNRPPRLPRPRPRPTSHPRP | -0.0916 |
| RRIRKRPPRLPRPRPRPYGNPRP | -0.135 |
| RRIRSRPPRLPRPRPRPSKEPRP | -0.0581 |
| RRIRGRPPRLPRPRPRPSHQPRP | -0.0609 |
| RRIRPRPPRLPRPRPRPKEPPRP | 0.133 |
| RRIRERPPRLPRPRPRPGIHPRP | -0.502 |
| RRIRRRPPRLPRPRPRPNCPPRP | 0.039 |
| RRIRTRPPRLPRPRPRPYGCPRP | -0.00664 |
| RRIRWRPPRLPRPRPRPDHCPRP | -0.00992 |
| RRIRSRPPRLPRPRPRPIQSPRP | -0.0288 |
| RRIRARPPRLPRPRPRPEEMPRP | 1.73 |
| RRIRSRPPRLPRPRPRPFFYPRP | -0.17 |
